In publication PMC11320570 (ACS Infectious Diseases, 2024):

B1: 2C8 mouse antibody (antibody, V domains shown)
VH: EVKLVESGGGLVQPGGSLSLSCAASGFTFTDYYMTWVRQPPGKALEWLALIRNKASGYTTEYSASVKGRFTISRDNSQSILYLQMNALRAEDSATYYCTRAKWDGHYFDYWGQGTTLTVSS
VL: DIQMTQSPASLSVSVGETVTITCRATKNIYNNLAWYQQKQGRSPQLLVYAATNLADGVPSRFSGSGSGTQFSLRINSLQSEDFGNYYCQHFWHTPWTFGGGTKLEIK
notes: Mouse IgG2a; source: hybridoma culture supernatant, purified (HiTrap protein-G HP)
B2: 3H5 mouse antibody (antibody, V domains shown)
VH: QVQLQQSGAEVARPGASVKLSCKASGYTFTSYWLQWVKQRPGQGLEWIGAIWPGDDDTRYAQKFQGKATMTADKSSSTAYIQLSNLASEDSAVYYCARKGGFAMDYWGQGTSVTVSS
VL: NIVMTQSPTSLAVSLGQRATISCRASESVDSFGKSFMHFYQQKPGQPPKLLIHLASNLESGVPARFTGRGSRTDFTLTIDPVEADDAATYYCQQNNEVPFTFGSGTKLEVK
B3: 513 engineered and humanized antibody (antibody, V domains shown)
VH: QVQLVQSGAEVKKPGASVKVSCKAGFNIKDVYMSWVRQAPEQGLEWMGRIDPENGDTKYDPKLQGRVTMTADTSTNTAYMELRSLRSDDTAVYYCARGWEGFAYWGQGTLVTVSS
VL: DIVMTQSPASLAVSLGQRATISCRASENVDKYGNSFMHWYQQKPGQPPKLLIYRASELQWGVPDRFSGSGSGTDFTLTISSLQAEDVAVYYCQRSNEVPWTFGQGTKLEIK

What was measured:
[1] = target: DENV-2 EDIII wild-type Fc-fusion antigen (Dengue virus type 2, strain 16681, UniProt P29990); test: ELISA; details: both partners purified
[2] = target: deglycosylated EDIII WT Fc-fusion antigen (Dengue virus type 2, strain 16681, UniProt P29990); test: ELISA; details: both partners purified

| Binder | binding result [1] | binding result [2] |
| --- | --- | --- |
| B1 | binds |  |
| B2 | binds | binds |
| B3 | binds |  |
